{
  "source": "patent US8785391B2",
  "about": "“Compound and method for treatment of alzheimer's disease and familial dementia” (Alphabeta AB, priority 2010, dated 2014)",
  "molecules": {"B1": {"name": "Bri2(90-236): recombinant protein of residues 90-236 of human Bri2 (SEQ ID NO: 2), encompassing the Brichos domain, expressed in E. coli (protein, listed as Homo sapiens)", "chain": "GIKYIKDDVILNEPSADAPAALYQTIEENIKIFEEEEVEFISVPVPEFADSDPANIVHDFNKKLTAYLDLNLDKCYVIPLNTSIVMPPRNLLELLINIKAGTYLPQSYLIHEHMVITDRIENIDHLGFFIYRLCHDKETYKLQRRET"}},
  "key": {"ABri23": {"target": "T1, ABri23 (Homo sapiens, UniProt Q9Y287)", "T1 construct": "purchased Bachem (Bubendorf, Switzerland)", "assay": "ESI-MS binding of Bri2(90-236) to ABri23", "protocol": "(§1) Prior to electrospray ionization mass spectrometry (ESI-MS), purified Bri2(90-236) (SEQ ID NO: 2) was rebuffered into 10 mM ammonium acetate, pH 7.0, using spin columns with a 3 kDa cut-off limit (Nanosep, Pall Corp., East Hills, N.Y., USA). Protein and peptides were mixed at 22° C. directly before analysis at a final protein concentration of 20 μM and a final peptide concentration of 50 μM. Data was acquired using a QTOF Ultima API mass spectrometer (Waters, Milford, Mass., USA) equipped with a Z-spray source operated in the positive-ion mode. Samples were introduced via nano-electrospray using metal-plated borosilicate glass capillary needles (Proxeon, Denmark). The source temperature was 80° C., the capillary voltage 1.7 kV, and the cone and RF lens 1 potentials were 100 and 38 V, respectively. The mass spectrometer was operated in single-reflector mode at a resolution of 10 000 (full width half maximum definition), and the mass scale was calibrated using myoglobin. Scans were acquired at a rate of 1 scan per 2 sec between 500 and 4000 m/z. The collision gas was argon at 5.2×10^−5 mbar. Mass spectra were smoothed using the Waters MassLynx software.\nAll peptides, with the exception of KFFEYNGKKFFE (SEQ ID NO: 15), ABri23 (SEQ ID NO: 4) and Aβ1-40 (SEQ ID NO: 11), were purchased from Thermo Electron (Darmstadt, Germany). KFFEYNGKKFFE was purchased from Interactiva (Ulm, Germany) and Aβ1-40 and disulfide-linked ABri23 were from Bachem (Bubendorf, Switzerland).\nPeptides, except for KFFEYNGKKFFE, ABri23 and Aβ1-40, were acetylated at the N-terminus and amidated at the C-terminus. […]\n(§2) ESI-MS binding experiments were conducted to investigate whether Bri2(90-236) can bind the peptides ABri23 and Aβ1-40. For this purpose, Bri2(90-236) was mixed with ABri23, Aβ1-40, or an equimolar mixture of ABri23 and Aβ1-40, to a final concentration of 20 μM Bri2(90-236) and 50 μM of each peptide, and analyzed by ESI-MS. Mass spectra were recorded to investigate the presence and stoichiometry of protein-peptide complexes in the gas phase."}, "Aβ1-40 [1]": {"target": "T2, Aβ1-40 (Homo sapiens, UniProt P05067)", "T2 construct": "made in house; host or cells: E. coli", "T2 sequence (P05067 672-711)": "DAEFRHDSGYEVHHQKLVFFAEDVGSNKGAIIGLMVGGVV", "assay": "ESI-MS binding of Bri2(90-236) to Aβ1-40", "protocol": "as §1, with “The mass spectrometer was operated in single-reflector mode at a resolution of 10 000 (full width half maximum definition), and the mass scale was calibrated using myoglobin. Scans were acquired at a rate of 1 scan per 2 sec between 500 and 4000 m/z. The collision gas was argon at 5.2×10^−5 mbar. Mass spectra were smoothed using the Waters MassLynx software.” left out\nas §2"}, "Aβ1-40 [2]": {"target": "T2, Aβ1-40", "assay": "ThT aggregation of Aβ1-40, Bri2(90-236) added at different time points", "assay_type": "biochemical", "protocol": "Aggregation of 8 μM Aβ1-40 was monitored by recording the ThT fluorescence intensity as a function of time in 20 mM Na-phosphate, 200 μM EDTA, 20 μM ThT, 0.02% NaN3, 37° C. with 100 rpm shaking. 800 nM Bri2(90-236) was added from a concentrated stock before the start of the experiment or at different time points after starting the experiment ranging from 0.3 to 11.2 hours."}},
  "data": [
    {"molecule": "B1", "values": [
      {"measurement": "Bri2(90-236)/ABri23 complex in competition experiment", "setting": "ABri23; 20 μM Bri2(90-236) with 50 μM Aβ1-40 and 50 μM ABri23 (equimolar), ESI-MS", "result": "nearly all detectable recombinant Bri2(90-236) is complexed with ABri23"},
      {"measurement": "saturation of Bri2(90-236) with ABri23 (complex formation)", "setting": "ABri23; 20 μM Bri2(90-236), 50 μM oxidized ABri23 (2.5-fold molar excess), ESI-MS conditions", "result": "near-complete saturation"},
      {"measurement": "binding preference ABri23 versus Aβ1-40", "setting": "ABri23; competition, both peptides at equimolar amounts, ESI-MS", "result": "preferentially binds ABri23"},
      {"measurement": "Bri2(90-236)/Aβ1-40 complex in competition experiment", "setting": "Aβ1-40 [1]; 20 μM Bri2(90-236) with 50 μM Aβ1-40 and 50 μM ABri23 (equimolar)", "result": "only minor signals"},
      {"measurement": "amount of Bri2(90-236)/Aβ1-40 complexes observed", "setting": "Aβ1-40 [1]; 20 μM Bri2(90-236), 50 μM freshly dissolved Aβ1-40 (2.5 fold excess)", "result": "Only small amounts"},
      {"measurement": "effect on Aβ1-40 aggregation process", "setting": "Aβ1-40 [2]; 8 μM Aβ1-40, 800 nM Bri2(90-236) added anywhere during the lag time", "result": "can be delayed"},
      {"measurement": "effect on Aβ1-40 aggregation process", "setting": "Aβ1-40 [2]; 8 μM Aβ1-40, 800 nM Bri2(90-236) added at the end of the transition", "result": "no effect is seen"},
      {"measurement": "effect on Aβ1-40 aggregation process", "setting": "Aβ1-40 [2]; 8 μM Aβ1-40, 800 nM Bri2(90-236) added close to the mid point of the transition", "result": "reduce its speed and progress at lower rate"},
      {"measurement": "effect on Aβ1-40 aggregation process", "setting": "Aβ1-40 [2]; 8 μM Aβ1-40, 800 nM Bri2(90-236) added during the early part of the sigmoidal transition", "result": "appears to halt with no further growth of the ThT positive aggregates"}
    ]}
  ]
}
